Experimental data: US5312736

Target: factor Xa

Chain of Ser-(Glu15-Thr161)-EPI (chain): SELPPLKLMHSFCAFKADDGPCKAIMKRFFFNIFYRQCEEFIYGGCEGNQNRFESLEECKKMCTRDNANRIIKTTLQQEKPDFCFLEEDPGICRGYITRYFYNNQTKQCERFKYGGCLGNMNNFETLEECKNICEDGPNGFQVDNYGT
Chain of native extrinsic pathway inhibitor (EPI), entire EPI protein expressed from pCMVEPIhGH (chain): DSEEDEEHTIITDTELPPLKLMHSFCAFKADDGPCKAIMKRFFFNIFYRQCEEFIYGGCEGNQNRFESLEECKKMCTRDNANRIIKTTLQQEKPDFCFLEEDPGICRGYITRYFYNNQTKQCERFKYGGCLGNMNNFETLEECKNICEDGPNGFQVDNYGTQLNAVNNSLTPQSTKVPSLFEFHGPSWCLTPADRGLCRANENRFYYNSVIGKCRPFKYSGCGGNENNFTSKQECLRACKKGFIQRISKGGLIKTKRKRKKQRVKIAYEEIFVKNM
Chain of Ser-(Thr88-Thr161)-EPI (chain): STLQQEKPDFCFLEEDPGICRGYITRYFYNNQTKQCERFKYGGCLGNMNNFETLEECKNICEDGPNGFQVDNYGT

Substance | anti-Xa activity [U/ml], chromogenic assay (FXa, substrate S2222)
Ser-(Glu15-Thr161)-EPI | 5.6 U/ml
Ser-(Thr88-Thr161)-EPI | 0.15 U/ml
native extrinsic pathway inhibitor (EPI), entire EPI protein expressed from pCMVEPIhGH | 7.6 U/ml
